# In patent US5580955A, “Fragments of neurofibromin (NF1) and method to reverse activated ras induced malignant transformation in mammalian cells” (Ludwig Institute for Cancer Research, priority 1995, dated 1996):
# What was measured:
# [1] = test system: c-HaRas protein; assay: Ras GTPase stimulating activity: hydrolysis of [gamma-32P] GTP bound to c-HaRas protein, by GST fusion NF1 mutants; format: biochemical, murine
# Source text: N- and C- terminal deletion mutants were constructed by subcloning the corresponding PCR DNA fragments into the bacterial expression vector pGEX-2TH, as described in Maruta et al., supra. FIG. 4 sets forth the DNA fragments inserted into the expression vector. The number following NF of each mutant indicates the total amino acid residues included. The DNA fragments inserted include the DNA for human type I NF357, human type II NF1-GRD (amino acid residues 1355 to 1531 in addition to the insert of 21 amino acids) and murine c-HaRas (residues 1-189). The type II-specific insert of 21 amino acids is indicated by the number 21 above a triangle following codon 1371. This 21 amino acid insert is set forth in SEQ ID NO: 2. The solid rectangle indicates the GAP active center of 56 amino acids, whereas the shaded rectangle indicates a supporting domain of 22 amino acids.
# The expression vectors were transfected into E.coli and the protein expressed as GST fusion proteins. The fusion proteins were thereafter purified from E.coli as glutathione S-transfeRase fusion proteins and affinity-purified on a glutathione (GSH)-agarose column, as described in Maruta, et al., supra.
# The purified proteins were then screened for Ras GTPase stimulating activity. The assay was carried out for each of the NF357 deletion mutants.
# The hydrolysis of [gamma-^32 P] GTP bound to c-HaRas protein was determined by incubating with bound protein at 25° C. for 20 minutes in the presence or absence of each NF1 mutant preparation in 100 ul of a buffer containing 50 mMTris-HCl, pH 7.5, 15 mMMgCl2, 2.5 mM EDTA, 3 mM ATP, 1 mM dithiothreitol (DTT) and 0.5 mg/ml bovine serum albumin (BSA), then precipitating the unhydrolyzed [gamma-32P] GTP with charcoal, and finally measuring the radioactivity of the [gamma-32P] inorganic phosphate in the supernatant, as described previously, Maruta et al., supra. Protein concentrations were determined by the Bradford method with BSA as a standard.
# [2] = stability of GAP activity to freezing/thawing or storage; format: physicochemical; conditions: freezing/thawing or storage at 4° C. for 6 months
"Activation (fold), Ras GTPase activation ([1]; 20 ug/ml NF1 mutants, 25° C., 20 minutes)","EC50, concentration required for 50% hydrolysis of GTP bound Ras ([1]; 25° C., 20 minutes)",Molecule,Ras GTPase stimulation (in words) [1],reduction of GTPase activity relative to NF91 ([1]; deletion of the C-terminal 13 amino acids from NF91),GAP activity after treatment/storage [2]
6 fold,25 µg/mL,"NF78: NF1 fragment, amino acid residues 1441 to 1518 (protein) RPFNDFVKSNFDAARRFFLDIASDCPTSDAVNHSLSFISDGNVLALHRLLWNNQEKIGQYLSSNRDHKAVGRRPFDKM",still able to stimulate Ras GTPase activity,2.5 fold,not significantly affected
–,–,"GAP1C: the 709-1044 amino acid C-terminal GTPase activating domain of GAP1 (protein, UniProt P20936 709-1044, looked up, fragment) RARYSMEKIMPEEEYSEFKELILQKELHVVYALSHVCGQDRTLLASILLRIFLHEKLESLLLCTLNDREISMEDEATTLFRATTLASTLMEQYMKATATQFVHHALKDSILKIMESKQSCELSPSKLEKNEDVNTNLTHLLNILSELVEKIFMASEILPPTLRYIYGCLQKSVQHKWPTNTTMRTRVVSGFVFLRLICPAILNPRMFNIISDSPSPIAARTLILVAKSVQNLANLVEFGAKEPYMEGVNPFIKSNKHRMIMFLDELGNVPELPDTTEHSRTDLSRDLAALHEICVAHSDELRTLSNERGAQQHVLKKLLAITELLQQKQNQYTKTN",–,–,completely inactivated
